Experimental data taken from article PMC6313406.

Target: Dimeric Lip3 (isoenzyme 3 of Candida rugosa lipase) (Candida rugosa) (UniProt P32947)
Assay: SEC; Sephacryl S200 column (1.6x60 cm), 25 mM Tris/HCl pH 7.5, 0.15 M NaCl, 0.3 mL/min, no detergent; calibrated with the high molecular weight marker kit

stoichiometry N: 2
Substance: Dimeric Lip3 (isoenzyme 3 of Candida rugosa lipase) (from UniProt P32947 16-549)
